Source: PMC6620098 (Science Advances, 2019)

B1: Elp2 (endogenous, in the Elp123 subcomplex) (natural protein, UniProt P42935 1-788, looked up)
chain: MVECITPEAIFIGANKQTQVSDIHKVKKIVAFGAGKTIALWDPIEPNNKGVYATLKGHEAEVTCVRFVPDSDFMVSASEDHHVKIWKFTDYSHLQCIQTIQHYSKTIVALSALPSLISVGCADGTISIWRQNIQNDEFGLAHEFTIKKGFFYPLCLSLSKVEEKKYLLAIGGTNVNVFIASFILSDSGIEKCRVVAELEGHEDWVKSLAFRHQETPGDYLLCSGSQDRYIRLWRIRINDLIDDSEEDSKKLTLLSNKQYKFQIDDELRVGINFEALIMGHDDWISSLQWHESRLQLLAATADTSLMVWEPDETSGIWVCSLRLGEMSSKGASTATGSSGGFWSCLWFTHERMDFFLTNGKTGSWRMWATKDNIICDQRLGISGATKDVTDIAWSPSGEYLLATSLDQTTRLFAPWIYDASGRKREIATWHEFSRPQIHGYDMICVETVTDTRFVSGGDEKILRSFDLPKGVAGMLQKFVGIQFEEKSEMPDSATVPVLGLSNKAGEDDANEDDEEEEGGNKETPDITDPLSLLECPPMEDQLQRHLLWPEVEKLYGHGFEITCLDISPDQKLIASACRSNNVQNAVIRIFSTENWLEIKPALPFHSLTITRLKFSKDGKFLLSVCRDRKWALWERNMEDNTFELRFKNEKPHTRIIWDADWAPLEFGNVFVTASRDKTVKVWRHQKEPADDYVLEASIKHTKAVTAISIHDSMIREKILISVGLENGEIYLYSYTLGKFELITQLNEDITPADKITRLRWSHLKRNGKLFLGVGSSDLSTRIYSLAYE
B2: Elp3 (endogenous, in the Elp123 subcomplex) (enzyme, UniProt Q02908 1-557, looked up)
chain: MARHGKGPKTNKKKLAPEKERFIQCCADITLELTDSLTSGTTREINLNGLITKYSKKYKLKQQPRLTDIINSIPDQYKKYLLPKLKAKPVRTASGIAVVAVMCKPHRCPHIAYTGNICVYCPGGPDSDFEYSTQSYTGYEPTSMRAIRARYDPYEQARGRVEQLKQLGHSIDKVEYVLMGGTFMSLPKEYREDFIVKLHNALSGFNGNDIDEAILYSQQSLTKCVGITIETRPDYCTQTHLDDMLKYGCTRLEIGVQSLYEDVARDTNRGHTVRSVCETFAVSKDAGYKVVSHMMPDLPNVGMERDIEQFKEYFENPDFRTDGLKIYPTLVIRGTGLYELWKTGRYKSYSANALVDLVARILALVPPWTRIYRVQRDIPMPLVTSGVDNGNLRELALARMKDLGTTCRDVRTREVGIQEVHHKVQPDQVELIRRDYYANGGWETFLSYEDPKKDILIGLLRLRKASKKYTYRKEFTSQRTSIVRELHVYGSVVPLHSRDPRKFQHQGFGTLLMEEAERIAKEEHGSEKISVISGVGVRNYYGKLGYELDGPYMSKRI
B3: Elp1-3xFLAG (endogenous, in the Elp123 subcomplex) (natural protein, S. cerevisiae, UniProt Q06706 1-1349, looked up)
chain: MVEHDKSGSKRQELRSNMRNLITLNKGKFKPTASTAEGDEDDLSFTLLDSVFDTLSDSITCVLGSTDIGAIEVQQFMKDGSRNVLASFNIQTFDDKLLSFVHFADINQLVFVFEQGDIITATYDPVSLDPAETLIEIMGTIDNGIAAAQWSYDEETLAMVTKDRNVVVLSKLFEPISEYHLEVDDLKISKHVTVGWGKKETQFRGKGARAMEREALASLKASGLVGNQLRDPTMPYMVDTGDVTALDSHEITISWRGDCDYFAVSSVEEVPDEDDETKSIKRRAFRVFSREGQLDSASEPVTGMEHQLSWKPQGSLIASIQRKTDLGEEDSVDVIFFERNGLRHGEFDTRLPLDEKVESVCWNSNSEALAVVLANRIQLWTSKNYHWYLKQELYASDISYVKWHPEKDFTLMFSDAGFINIVDFAYKMAQGPTLEPFDNGTSLVVDGRTVNITPLALANVPPPMYYRDFETPGNVLDVACSFSNEIYAAINKDVLIFAAVPSIEEMKKGKHPSIVCEFPKSEFTSEVDSLRQVAFINDSIVGVLLDTDNLSRIALLDIQDITQPTLITIVEVYDKIVLLRSDFDYNHLVYETRDGTVCQLDAEGQLMEITKFPQLVRDFRVKRVHNTSAEDDDNWSAESSELVAFGITNNGKLFANQVLLASAVTSLEITDSFLLFTTAQHNLQFVHLNSTDFKPLPLVEEGVEDERVRAIERGSILVSVIPSKSSVVLQATRGNLETIYPRIMVLAEVRKNIMAKRYKEAFIVCRTHRINLDILHDYAPELFIENLEVFINQIGRVDYLNLFISCLSEDDVTKTKYKETLYSGISKSFGMEPAPLTEMQIYMKKKMFDPKTSKVNKICDAVLNVLLSNPEYKKKYLQTIITAYASQNPQNLSAALKLISELENSEEKDSCVTYLCFLQDVNVVYKSALSLYDVSLALLVAQKSQMDPREYLPFLQELQDNEPLRRKFLIDDYLGNYEKALEHLSEIDKDGNVSEEVIDYVESHDLYKHGLALYRYDSEKQNVIYNIYAKHLSSNQMYTDAAVAYEMLGKLKEAMGAYQSAKRWREAMSIAVQKFPEEVESVAEELISSLTFEHRYVDAADIQLEYLDNVKEAVALYCKAYRYDIASLVAIKAKKDELLEEVVDPGLGEGFGIIAELLADCKGQINSQLRRLRELRAKKEENPYAFYGQETEQADDVSVAPSETSTQESFFTRYTGKTGGTAKTGASRRTAKNKRREERKRARGKKGTIYEEEYLVQSVGRLIERLNQTKPDAVRVVEGLCRRNMREQAHQIQKNFVEVLDLLKANVKEIYSISEKDRERVNENGEVYYIPEIPVPEIHDFPKSHIVDF

What was measured:
Experiment in all cases: cryo-EM structure
[1] = target: B3
[2] = target: B1
[3] = target: the molecule itself

B1
binding result [1]: binds

B2
binding result [1]: binds | binding result [2]: binds

B3
stoichiometry N [3]: 2
